Experimental data as given in IntAct's records for PubMed 23782464.

B1: Bcl-2 homologous antagonist/killer (Homo sapiens), Q16611 (parent)
chain: MASGQGPGPPRQECGEPALPSASEEQVAQDTEEVFRSYVFYRHQQEQEAEGVAAPADPEMVTLPLQPSSTMGQVGRQLAIIGDDINRRYDSEFQTMLQHLQPTAENAYEYFTKIATSLFESGINWGRVVALLGFGYRLALHVYQHGLTGFLGQVTRFVVDFMLHHCIARWIAQRGGWVAALNLGNGPILNVLVVLGVVLLGQFVVRRFFKS
partner: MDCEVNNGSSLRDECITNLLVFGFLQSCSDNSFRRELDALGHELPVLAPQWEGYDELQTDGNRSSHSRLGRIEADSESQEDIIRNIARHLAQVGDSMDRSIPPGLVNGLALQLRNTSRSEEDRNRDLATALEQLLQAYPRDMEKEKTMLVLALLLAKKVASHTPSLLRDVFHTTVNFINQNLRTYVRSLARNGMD

Variants of: B1
Details: with bid_human BID

Row | effect of a mutation on the interaction | Variant
1 | increasing interaction | Y110E
